Common to all, as to experiment: purified protein
For data set [1], the system named is NC(=O)C1=CN([C@@H]2O[C@H](COP(=O)(O)OP(=O)(O)OC[C@H]3O[C@@H](n4cnc5c(N)ncnc54)[C@H](OP(=O)(O)O)[C@@H]3O)[C@@H](O)[C@H]2O)C=CC1. Particulars: 50 mM phosphate buffer pH 8.0, 30°C, co-substrate HSP, FAD.
Data set [2] relates to NC(=O)C1=CN([C@@H]2O[C@H](COP(=O)(O)OP(=O)(O)OC[C@H]3O[C@@H](n4cnc5c(N)ncnc54)[C@H](O)[C@@H]3O)[C@@H](O)[C@H]2O)C=CC1. Particulars: 50 mM phosphate buffer pH 8.0, 30°C, co-substrate HSP, FAD.
A further data set has as its system O=C(O)CCC(=O)c1ccc(O)nc1. The note with it: 50 mM phosphate buffer pH 8.0, 30°C, co-substrate NADH, FAD.

For orientation: Km means the substrate concentration at which the rate is half of its maximum. With “HSP hydroxylase (6-hydroxy-3-succinoylpyridine hydroxylase) (Agrobacterium tumefaciens)”, the Km was 350 ± 40 µM in data set [1], 100 ± 10 µM in data set [2] and 150 ± 20 µM in the data set with O=C(O)CCC(=O)c1ccc(O)nc1.
